From PMC5041007, “AglM and VNG1048G, Two Haloarchaeal UDP-Glucose Dehydrogenases, Show Different Salt-Related Behaviors” (Life, 2016)

Target: the molecule itself
Experiment: SEC; Hi-Load Superdex 200 16/60 directly after Ni-NTA chromatography; 2 M NaCl, 5 mM MgCl2, 50 mM Tris-HCl, pH 9.2; 1 mL/min; masses from a calibration curve of marker proteins (12.4-200 kDa)

B1: Haloferax volcanii AglM, C-terminally polyhistidine-tagged (enzyme, UniProt D4GYH5 1-430, looked up)
chain: MELSIIGSGYVGTTIAACFAELGHDVVNVDIDEDIVASLNDGQAPIHEPGLAELVERYAGDRLRATTDYDEILDTDATFLALPTPSTDDGSIDLGAMKTAATSLGETLARKDDSHLVVTKSTVVPRTTVDVIGPRIEEASGKRVGDGLDIAMNPEFLREGTAVDDFLSPDKIVLGAQTDRAYETLAEIFAPLVERAGNPPVVKTGISEAEMIKYANNAFLASKISLANDLANICKVFGVDSAEVLESIGLDSRIGSAFLGAGLGWGGSCFPKDTAAIIAAARAQGYEPRLLQAAVDVNDGQPERMLDLLRERFDLDGKRVAVLGLAFKPGTDDIRKSRAILLIQALLDAGADVVGYDPVATENMRERFPDIDYADSAADALANADAALVATDWDEFAALDDEFDAMRERIVIDGRRIVTRREGLDYESLV
notes: AglM, UDP-glucose dehydrogenase of Haloferax volcanii, 430 residues; gene amplified from genomic DNA with primers at the start and end of the gene; Calculated mass of the His-tagged chain close to 47 kDa; also called His-tagged AglM; UDP-glucose dehydrogenase; source: Hfx. volcanii cells transformed with pHis-AglM, purified (Ni-NTA, then size-exclusion chromatography); not shown: polyhistidine, …
**Q.** Which “stoichiometry N” value does the source give for B1 here?
**A.** 12
